In PMC6563307:

Columns and labels:
[1] = target: Vip3Ab1 (full length, not digested) (Bacillus thuringiensis); assay: SEC; analytical size exclusion chromatography of the full-length protein incubated overnight without midgut fluid, pH 10.0; 6 µL injected at 150 µg/mL; size estimated from molecular weight standards
[2] = target: Vip3Ab1 processed by midgut fluid (~65 kDa and ~20 kDa products that remain associated) (Bacillus thuringiensis); assay: SEC; analytical size exclusion chromatography after overnight digestion at pH 10.0, 30 °C, with S. frugiperda or S. eridania midgut fluid; 6 µL injected at 150 µg/mL; size estimated from molecular weight standards
[3] = target: Vip3Ab1-740 processed by midgut fluid (~65 kDa and ~20 kDa products that remain associated) (Bacillus thuringiensis); assay: as above
[4] = target: Vip3Ab1-740 (full length, not digested) (Bacillus thuringiensis); assay: SEC; analytical size exclusion chromatography of the full-length protein incubated overnight without midgut fluid, pH 10.0; 6 µL injected at 150 µg/mL; size estimated from molecular weight standards

**Q.** With “Vip3Ab1 (full length, not digested) (natural protein)” as the substance, how does the stoichiometry N [1] read?
**A.** 4

**Q.** “Vip3Ab1 processed by midgut fluid (~65 kDa and ~20 kDa products that remain associated) (complex)” was tested. Which stoichiometry N [2] did it give?
**A.** 4

**Q.** “Vip3Ab1-740 processed by midgut fluid (~65 kDa and ~20 kDa products that remain associated) (complex)” was tested. Which stoichiometry N [3] did it give?
**A.** 4

**Q.** With Vip3Ab1-740 (full length, not digested) as the substance, how does the stoichiometry N [4] read?
**A.** 4
